# Laboratory results taken from publication PMC6131548 (2018).
# T1: Tsr2-N (recombinant, binding assays) (S. cerevisiae (yeast), UniProt Q06672 1-152)
# T1 chain: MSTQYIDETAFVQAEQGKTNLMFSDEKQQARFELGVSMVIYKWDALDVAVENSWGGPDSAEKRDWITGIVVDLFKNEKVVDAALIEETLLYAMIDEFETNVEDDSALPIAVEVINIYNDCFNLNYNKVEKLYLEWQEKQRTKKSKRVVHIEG
# Target: T1, Tsr2-N (recombinant, binding assays)
# Experiment: ITC
binder,measurement,value
RPRFNRENKVSPADAAKKAL [ESS2 peptide],Kd,720 nM
